Our source for the Kd, koff and kon values is patent US20250296985A1 (TRANSLATIONAL HEALTH SCIENCE AND TECHNOLOGY INSTITUTE, published 2025).

Assay [1] has as its target T1, Biotinylated wild type SARS-CoV-2 receptor binding domain (RBD) antigen (SARS-CoV-2, Wuhan isolate (wild type), UniProt P0DTC2 319-541).
Assay [2] deals with T1, Biotinylated wild type SARS-CoV-2 …. This is another data set of the same source.

Where two headings read alike, the source gives them in different places. A value given as a limit tells only on which side of the number the result lay.

B1: THSC20.HVTR04 (antibody, V domains shown)
VH: QVQLVESGGGVVQPGRSLRLSCAASGFTFSNYAIHWVRQAPGKGLEWVAVVSYDGSNKYYAESVKGRFTISRDNSKNTLSLQMISLRPEDTAVYYCASVADTAMVPEWYFDLWGRGTLVTVSS
VL: QSVLTQPRSVSGSPGQSVTISCTGTSSDVGAYNYVSWYQQHPGKAPKLMIYDVSARPSGVPDRFSGSKSGNTASLTISGLQAEDEADYYCCSYAGSWVFGGGTKLTVL
Turning to B1, the Kd (commonly the concentration at which binding is half-saturated) is 190 pM in assay [1] and 196 pM in assay [2].

B2: THSC20.HVTR06 (antibody, V domains shown)
VH: QLQLVQSGSELKKPGASVKVSCKASGYTFTKYTVNWVRQAPGQGLEWMGWINTNTGNPTSAQGFTGRFVFSLDTSVSTAYLHISSLKTEDTAVYYCARVLGDQQVVGGDDYYYYYAMDVWGQGTPVTVSS
VL: SYELTQPPSVSVSPGQTASITCSGDKLGDKYASWYQQKPGQSPVLVIYQDTKRPSGIPERFSGSNSGNTATLTITGTQAMDETDYYCQAWDNSGWVFGGGTKLTVL
In turn, B2 returned a Kd in assay [2] of 635 pM.

B3: THSC20.HVTR11 (antibody, V domains shown)
VH: EVQLVQSGAEVKKPGSSVKVSCKASGGTFSSYTISWVRQAPGQGLEWMGRIIPILGIANYAQKFQGRVTITADKSTSTACMELSSLRSEDTAVYFCARIRGYSGYGSSYYFDYWGQGTLVTVSS
VL: QSVLTQPPSVSGAPGQRVTISCTGSSSNIGAGYDVHWYQQLPGTAPKLLIYGNSNRPSGVPDRFSGSKSGTSASLAITGLQAEDEADYYCQSYDSSLSHEVFGGGTKLTVL
As to B3, in assay [2], the equilibrium dissociation constant (Kd) is less than 1 pM; the koff – broadly, a measure of how fast the partners let go of each other – was less than 1e-07 s⁻¹; the kon (commonly the second-order rate constant of association) turned out to be 103000 M⁻¹ s⁻¹.

B4: THSC20.HVTR39 (antibody, V domains shown)
V domain 1: QVQLQESGPGLVRPSETLSLTCIVSGGSINSRSYSWGWIRQPPGKGLEWIGNVYYSGTTYYNPSLKSRVTISVDTSKNQFSLNLSSVTAADTAVYYCARNLFYYDRSGSSHHDAFDIWGQGTMVTVSS
V domain 2: HGYVRPLSVAPGQTARITCGGNNIGSKSVHWYQQKPGQAPVLVVYGDGDRPSGIPERFSGSNSGNTATLTISRVEAGDEADYYCQVWDRGSDVWVFG
As to B4, the Kd in assay [2] came to 513 pM.

B5: THSC20.HVTR88 (antibody, V domains shown)
VH: QVQLVQSGAEVKKPGASVKVSCKASGYPFTSYVISWVRQAPGQGLEWMGWISAYNGNTDYAQKLQGRVTMTTDTSTSTAYMELRSLRSDDTAVYYCAREGKYSSGWSYSEYFDYWGQGTLVTVSS
VL: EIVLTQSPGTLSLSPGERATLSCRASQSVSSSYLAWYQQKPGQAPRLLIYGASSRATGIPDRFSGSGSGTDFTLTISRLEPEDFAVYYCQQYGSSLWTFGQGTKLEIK
For B5, the affinity in assay [2], expressed as Kd, was 427 pM.

B6: THSC20.HVTR26 (antibody, V domains shown)
VH: EVQLVESGGGLVQPGGSLRLSCAASGFTVSSNYMSWVRQAPGKGLEWVSAIYSGDSTYYADSVKGRFTISRHNPKNTLYLQMNSLRAEDTAVYYCARLVGALTNIVVSGDGGAFDIWGQGTMVTVSS
VL: SYELTQPASVSGSPGQSITISCTGTSSDVGSYNLVSWYQQHPGKAPKLMIYEVSKRPSGVSNRFSGSKSGNTASLTISGLQAEDEVDYYCCSYAGSSTWVFGGGTKLTVL
Regarding B6, the Kd in assay [1] worked out at 220 pM; in assay [2] it was 255 pM.

B7: THSC20.HVTR55 (antibody, V domains shown)
VH: EVQLVQSGAEVKKPGESLRISCKGSGFRFTNYWIGWVRQMPGKGLEWMGIIYPGDSDTRYSPSFQGQVTISADKSLSTAYLQWSSLQASDTAIYYCARRDRWELDPLDYWGQGTLVTVSS
VL: DIVMTQSPSTLSASVGDRVTITCRASQSISSWLAWYQQKPGKAPNLLIYKASSLESGVPSRFSGSGSGTEFTLTISGLQPDDFATYYCQHYNGYPYTFGQGTKLEIK
As for B7, in assay [2], the Kd was less than 1 pM and the koff was less than 1e-07 s⁻¹.
